Substitutions are numbered along the chain they refer to. Bounds are passed on as bounds.

The target in assay [1] is T1, BCMA on NCI-H929 cells (human, UniProt Q02223 1-184).
T1 construct: whole, on cells; also called BCMA-expressing NCI-H929 cells; BCMA-expressing target cells
T1 sequence (looked up): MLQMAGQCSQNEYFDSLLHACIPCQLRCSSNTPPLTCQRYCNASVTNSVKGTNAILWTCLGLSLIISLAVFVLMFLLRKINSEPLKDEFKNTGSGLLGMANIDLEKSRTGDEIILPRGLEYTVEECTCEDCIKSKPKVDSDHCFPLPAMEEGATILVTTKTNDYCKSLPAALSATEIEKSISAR
Briefly: flow cytometry on NCI-H929 cells, Mean fluorescence against antibody conc. (nM). The procedure:
Binding activity of the chimeric bispecific BCMA/CD3 FIT-Ig antibodies was tested via flow cytometry with a human CD3/TCR complex transfected CHO cell line (CHOK1/CD3/TCR cells) and BCMA-expressing NCI-H929 cells. Briefly, 5×10⁵ cells in FACS buffer were seeded into 96 well plates. Cells were centrifuged at 400×g for 5 minutes and supernatants were discarded. For each well, 100 μl serially diluted FIT-Ig or FIT-Fab antibodies were then added and mixed with the cells. Following incubation for 40 minutes at 4° C., plates were washed several times to remove excess antibodies. Secondary antibody (goat anti-huIgG kappa chain specific) was then added and incubated with cells at room temperature for 20 minutes. After another round of centrifugation and washing, cells were resuspended with FACS buffer for reading on a CytoFLEX Flow Cytometer. Results were analyzed and plotted with GraphPad Prism 5.0 software.

For assay [2], the target named is T2, human CD3 on the surface of Jurkat cells (human, UniProt P07766 23-207; P09693 23-182; P04234 22-171).
T2 construct: whole, on cells; Endogenous CD3 complex of the Jurkat T cell line; also called cell surface CD3 target on Jurkat cells; CD3-expressing Jurkat cells
T2 sequence (P07766 23-207, chain 1 of 3): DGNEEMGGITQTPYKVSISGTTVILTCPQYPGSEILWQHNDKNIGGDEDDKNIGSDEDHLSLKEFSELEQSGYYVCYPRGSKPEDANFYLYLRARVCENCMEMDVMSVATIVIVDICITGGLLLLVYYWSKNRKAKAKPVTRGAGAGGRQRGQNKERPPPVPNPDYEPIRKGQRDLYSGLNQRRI
T2 sequence (P09693 23-182, chain 2 of 3): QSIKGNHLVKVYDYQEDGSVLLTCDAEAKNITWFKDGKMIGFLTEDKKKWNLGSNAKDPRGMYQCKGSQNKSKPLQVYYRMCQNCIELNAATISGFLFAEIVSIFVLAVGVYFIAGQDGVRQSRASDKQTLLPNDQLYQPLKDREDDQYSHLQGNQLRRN
T2 sequence (P04234 22-171, chain 3 of 3): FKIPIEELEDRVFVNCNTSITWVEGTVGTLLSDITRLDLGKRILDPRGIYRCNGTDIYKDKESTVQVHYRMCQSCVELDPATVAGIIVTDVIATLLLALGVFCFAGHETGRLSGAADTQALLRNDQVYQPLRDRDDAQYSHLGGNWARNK
Briefly: flow cytometry on Jurkat/NFAT/luc cells, MFI against antibody conc. (nM).

In assay [3] the target is T1, BCMA on NCI-H929 cells. Briefly: cell-based or functional assay.
Assay [4] has as its target T3, BCMA on HEK293F-BCMA-NF-kB-luc cells (clone 1H2) (UniProt Q02223 1-184, limits assumed).
T3 sequence (looked up): T1 sequence (looked up)
Briefly: cell-based or functional assay.

In assay [5] the target is T4, recombinant human BCMA extracellular domain/Fc dimer (human).
T4 construct: also called Human BCMA (ECD); human BCMA(ECD)/Fc
Briefly: SPR, Biacore T200, 25 C; antibody captured on anti-mouse IgG Fc, BCMA(ECD)/Fc injected. The protocol:
(§1) Briefly, goat anti-mouse IgG Fc antibody was directly immobilized across a biosensor chip, and antibody samples were injected over reaction matrices at a flow rate of 5 μl/min. Mouse anti-BCMA IgG test antibody was injected over the immobilized surface and captured by the immobilized anti-Fc antibodies. Human and cynomolgus BCMA(ECD)/Fc target polypeptides were then injected over the captured mouse anti-BCMA IgG surface. The association and dissociation rate constants, kₒₙ (M⁻¹s⁻¹) and koff (s⁻¹), respectively, were determined with a continuous flow rate of 30 μl/min. Rate constants were derived by making kinetic binding measurements at five different concentrations of target BCMA(ECD) polypeptide. The equilibrium dissociation constant KD (M) of the reaction between antibodies and related target proteins was then calculated from the kinetic rate constants using the formula KD=koff/kₒₙ. Kinetic constants were determined by processing and fitting the data to a 1:1 binding model using Biacore analysis software.
In general terms: SPR reads the build-up and loss of mass on a sensor chip optically.

Assay [6] has as its target T5, cynomolgus BCMA(ECD)/Fc target polypeptide (cynomolgus).
T5 construct: extracellular domain; also called Cyno BCMA (ECD); cynoBCMA/Fc
The description is as above. The protocol:
as §1

The target of assay [7] is T1, BCMA on NCI-H929 cells. The assay is described as follows: flow cytometry on NCI-H929 cells, MFI. On the technique in general: Flow cytometry measures light scatter and fluorescence of single cells or particles in a stream.
For assay [8], the target named is T6, recombinant huCD3εγ/Fc fusion protein (fusion protein heterodimer) (human).
T6 construct: also called huCD3/Fc dimer; heterodimeric CD3εγ/Fc fusion protein
T6 sequence (chain, as listed by the source limits assumed, chain 1 of 2): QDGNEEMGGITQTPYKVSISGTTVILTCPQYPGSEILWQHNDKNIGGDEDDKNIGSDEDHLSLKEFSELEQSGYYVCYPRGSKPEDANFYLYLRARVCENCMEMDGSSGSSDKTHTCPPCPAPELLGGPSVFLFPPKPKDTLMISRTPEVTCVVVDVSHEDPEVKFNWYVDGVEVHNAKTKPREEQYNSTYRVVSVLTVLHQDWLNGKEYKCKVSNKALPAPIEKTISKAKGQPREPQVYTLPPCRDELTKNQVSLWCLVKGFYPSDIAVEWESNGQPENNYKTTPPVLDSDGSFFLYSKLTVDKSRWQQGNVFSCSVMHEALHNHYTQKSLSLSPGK
T6 sequence (chain, as listed by the source limits assumed, chain 2 of 2): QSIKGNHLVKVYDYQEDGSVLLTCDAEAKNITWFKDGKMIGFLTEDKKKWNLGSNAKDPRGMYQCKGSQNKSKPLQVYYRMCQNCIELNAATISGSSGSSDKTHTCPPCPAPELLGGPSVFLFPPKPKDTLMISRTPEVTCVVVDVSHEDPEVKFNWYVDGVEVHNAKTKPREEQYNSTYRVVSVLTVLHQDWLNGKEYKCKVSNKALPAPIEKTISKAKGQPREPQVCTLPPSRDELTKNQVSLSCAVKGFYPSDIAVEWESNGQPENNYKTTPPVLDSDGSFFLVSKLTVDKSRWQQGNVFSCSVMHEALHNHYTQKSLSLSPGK
Briefly: SPR, Biacore T200, 25 C; antigen/Fc amine-coupled to the chip, FIT-Ig injected.

The target in assay [9] is T7, cynoCD3εγ/Fc fusion protein (cynomolgus monkey, UniProt Q95LI5 22-117; Q95LI7 23-113).
T7 construct: also called cynomolgus monkey CD3ε/γ heterodimer-Fc fusion protein; not shown: linker and Fc not described for the cynomolgus construct
T7 sequence (looked up) 1: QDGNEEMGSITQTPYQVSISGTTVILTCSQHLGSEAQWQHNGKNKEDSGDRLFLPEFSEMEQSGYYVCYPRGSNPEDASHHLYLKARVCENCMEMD
T7 sequence (looked up) 2: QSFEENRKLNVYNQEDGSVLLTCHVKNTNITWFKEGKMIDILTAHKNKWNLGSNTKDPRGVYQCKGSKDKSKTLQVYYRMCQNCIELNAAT
Described as above.

Assay [10] has as its target T5, cynomolgus BCMA(ECD)/Fc target …. Described as above.
The target in assay [11] is T2, human CD3 on the surface of Jurkat cells. The assay is described as follows: flow cytometry on Jurkat cells, Median-APC against antibody conc. (nM).
In assay [12] the target is T4, recombinant human BCMA extracellular …. The assay is described as follows: SPR, Biacore T200, 25 C; antigen/Fc amine-coupled to the chip, FIT-Ig injected.

B1: FIT1006-6a-Fab (bispecific antibody, not shown: small tags and cut ends)
chain 1: not shown
chain 2: EVQLVQSGAEVKKPGASVKVSCKASGYTFTNYYVHWMRQAPGQGLEWIGWISPGSDNTKYNEKFKGRVTLTADTSISTAYMELSRLRSDDTAVYYCARDDYGNYYFDYWGQGTTVTVSSASTKGPSVFPLAPSSKSTSGGTAALGCLVKDYFPEPVTVSWNSGALTSGVHTFPAVLQSSGLYSLSSVVTVPSSSLGTQTYICNVNHKPSNTKVDKKVEPKSC
chain 3: DIQMTQSPASLSASVGETVTVTCGASENIYGALNWYQRKQGKSPQLLIYGATNLADGISSRFSGSGSGRQFSLKISSLLPDDVATYFCQSVLTTPWTFGGGTKLEIKRTVAAPSVFIFPPSDEQLKSGTASVVCLLNNFYPREAKVQWKVDNALQSGNSQESVTEQDSKDSTYSLSSTLTLSKADYEKHKVYACEVTHQGLSSPVTKSFNRGEC
notes: FIT-Fab made from FIT1006-6a by papain digestion (Fc removed)
As for B1, the binding result in the assay with BCMA on NCI-H929 cells [1] is “binds”.

B2: FIT1006-31a(D-T) (bispecific antibody, human IgG1, kappa, L234A L235A)
chain 1: not shown
chain 2: B1 chain 2 with Y27F, T28S, I48M, L70M, A72R
chain 3: DIQMTQSPSSLSASVGDRVTITCGASENIYGALNWYQQKPGKAPKLLIYGATNLATGIPSRFSGSGSGRDFTLTISSLQPEDFATYYCQSVLTTPWTFGQGTKLEIKRTVAAPSVFIFPPSDEQLKSGTASVVCLLNNFYPREAKVQWKVDNALQSGNSQESVTEQDSKDSTYSLSSTLTLSKADYEKHKVYACEVTHQGLSSPVTKSFNRGEC
For the molecule B2, the concentration for a half-maximal effect (EC50 (read off the curve)) in [2] was around 1 nM.

B3: FIT1006-4a-Fab (bispecific antibody, not shown: small tags and cut ends)
chain 1: not shown
chain 2: B1 chain 2 with Y27F, T28S, I48M, L70M, A72R
chain 3: B1 chain 3
With B3, the binding result with BCMA on NCI-H929 cells [1] is listed as “binds”.

B4: FIT1006-8a-Fab (bispecific antibody, not shown: small tags and cut ends)
chain 1: not shown
chain 2: B1 chain 2 with M37V
chain 3: B1 chain 3
notes: FIT-Fab made from FIT1006-8a by papain digestion (Fc removed)
Take B4: the binding result in the assay with BCMA on NCI-H929 cells [1] is “binds”.

B5: FIT1006-35a(D-T) (bispecific antibody, human IgG1, kappa, L234A L235A)
chain 1: not shown
chain 2: B1 chain 2 with Y27F, T28S
chain 3: B2 chain 3
For the molecule B5, the binding result in [2] was “binds”.

B6: mAbBCMA-002 (antibody, V domains shown)
VH: QIQLVQSGPELKKPGETVKISCKASGYSFTNYGLNWVKQAPGKGLKWMGWINTYSGHPTYVDDFKGRFAFSLETSASTAYLQINKLKNEDTSTYFCVREKDDGYRLGLDYWGQGTSVTVSS
VL: QIVLTQSPAIMSASPGEKVTMTCSASSSVSYMYWYQQRPGSSPRLWIYDTSNLVSGVPARFSGSRSGTSYSLTISGMEAEDAATYYCLQYSGYPYTFGGGTKLEIK
notes: Mouse anti-BCMA IgG from hybridoma
As for B6, in the assay with BCMA on NCI-H929 cells [3], the “EC50 of inhibition of BAFF-induced NF-kB phosphorylation in NCI-H929 cells (inhibition %), unit from the axis” value was found to be 34.8 nM. Further, in [4], the “EC50 of inhibition of the BAFF-induced NF-kB luciferase signal in HEK293F-BCMA-NF-kB-luc cells (inhibition %; the curve reaches only about 30 % at 100 nM), unit from the axis” value amounted to 20.1 nM. For the same molecule, in assay [5], the Kd came to 13.8 nM, the koff amounted to 0.00292 s⁻¹ and the kon amounted to 212000 M⁻¹ s⁻¹. In [6], this molecule displayed a Kd of 7.55 nM, a koff of 0.000304 s⁻¹ and a kon of 40300 M⁻¹ s⁻¹.

B7: HuEM0006-01-24 (antibody, human IgG1, kappa, L234A L235A, V domains shown)
VH: EVQLVQSGAEVKKPGASVKVSCKASGFSFTNYYVHWMRQAPGQGLEWMGWISPGSDNTKYNEKFKGRVTMTRDTSISTAYMELSRLRSDDTAVYYCARDDYGNYYFDYWGQGTTVTVSS
VL: DIVMTQSPDSLAVSLGERATINCKSSQSLLNARTRKNYLAWYQQKPGQPPKLLIYWASTRESGVPDRFSGSGSGTDFTLTISSLQAEDVAVYYCKQSYILRTFGGGTKVEIKR
notes: Humanized variant of mAbCD3-001; also called HuEM1006-01-24; monospecific anti-CD3 IgG
With B7, the binding result in the assay with BCMA on NCI-H929 cells [7] is listed as “no binding (tested: 100 nM)”. Also, the “EC50 (read off the curve)” value in [2] was around 0.5 nM.

B8: huEM0006-01-27 (antibody, human IgG1, kappa, L234A L235A, V domains shown)
VH: B7 VH with M48I, M70L, R72A
VL: B7 VL
In the case of B8, the values for the binding result (with BCMA on NCI-H929 cells [7]; in assay [2]) were “no binding (tested: 100 nM)” and “binds”, respectively.

B9: FIT1006-31b (D-E) (bispecific antibody, human IgG1, kappa, L234A L235A)
chain 1: not shown
chain 2: EVQLVQSGAEVKKPGASVKVSCKASGYTFTNFWMHWVRQAPGQRLEWMGAFYPGNDDTYYNQKFKGRVTITADTSASTAYMELSSLRSEDMAVYYCARSGYYGSSDAMDYWGQGTTVTVSSASTKGPSVFPLAPSSKSTSGGTAALGCLVKDYFPEPVTVSWNSGALTSGVHTFPAVLQSSGLYSLSSVVTVPSSSLGTQTYICNVNHKPSNTKVDKKVEPKSC
chain 3: not shown
notes: Humanized BCMA/CD3 FIT-Ig, outer BCMA and inner CD3 Fab, no linkers
On to B9, for which, in assay [8], the Kd worked out at 17.1 nM, the koff stood at 0.00574 s⁻¹ and the kon is 337000 M⁻¹ s⁻¹. Further, in [9], the Kd is 10.8 nM, the koff was found to be 0.00632 s⁻¹ and the association rate constant (kon) came to 583000 M⁻¹ s⁻¹. In assay [10], the Kd was determined as 1.61 nM, the koff turned out to be 0.000167 s⁻¹ and the kon was determined as 104000 M⁻¹ s⁻¹.

B10: FIT1006-35b(D-T) (bispecific antibody, human IgG1, kappa, L234A L235A)
chain 1: not shown
chain 2: B9 chain 2
chain 3: not shown
notes: Humanized BCMA/CD3 FIT-Ig, outer BCMA and inner CD3 Fab
As to B10, the binding result in [11] is recorded as “binds”.

B11: FIT1006-29b(D-A) (bispecific antibody, human IgG1, kappa, L234A L235A)
chain 1: not shown
chain 2: B9 chain 2 with T30P, M48I, R67K, V68A, I70L
chain 3: not shown
notes: as for B10
As for B11, the Kd in assay [8] is 16.7 nM; in assay [9], 11.2 nM; in assay [12], below 0.057 nM; in [10], 1.09 nM. The koff in assay [8] was 0.00585 s⁻¹; in [9], 0.00607 s⁻¹; in assay [12] it was below 5e-06 s⁻¹; in assay [10], 0.00021 s⁻¹. Moreover, the kon in assay [8] turned out to be 349000 M⁻¹ s⁻¹; in [9] it was 541000 M⁻¹ s⁻¹; in assay [12] it was 87800 M⁻¹ s⁻¹; in assay [10], 192000 M⁻¹ s⁻¹.

B12: FIT1006-31b(D-T) (bispecific antibody, human IgG1, kappa, L234A L235A)
chain 1: not shown
chain 2: B9 chain 2
chain 3: not shown
notes: as for B10
As to B12, the “EC50 (read off the curve)” value in assay [11] was around 3 nM. Also, in assay [8], the Kd was found to be 15.6 nM, the koff was found to be 0.00572 s⁻¹ and the kon was found to be 367000 M⁻¹ s⁻¹. In assay [9], this molecule returned a Kd of 11.4 nM, a koff of 0.00621 s⁻¹ and a kon of 546000 M⁻¹ s⁻¹. Besides, in assay [10], the Kd is 1.02 nM, the koff is 0.000191 s⁻¹ and the kon is 188000 M⁻¹ s⁻¹.

What is called EC50 (read off the curve) is the midpoint of the concentration-response curve. The low end stands for higher potency in that assay, the high end for lower potency in that assay. As a reminder, the Kd is the concentration at which binding is half-saturated. The koff is the first-order rate constant of dissociation. What is called kon is the second-order rate constant of association.
